Measurements as given in the supplement of paper PMC11780869.

System: Bacillus subtilis
Test: cleaved RNA product abundance (RNA/gDNA barcode ratio) relative to median wild-type variant (ratio to wild type); higher = more accumulation of the downstream cleavage product
Conditions: cleavage site: cggR-gapA (positions -7 to +36 mutated)
Outline: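 Sequencing of barcodes from gel-selected, reverse-transcribed cleaved RNA and from genomic DNA, with UMI collapsing, yielded a per-construct RNA:gDNA ratio. Scaled to the median construct with the unmutated site, this ratio is the cleaved product abundance. The barcoded reporters (truncated aprE or tetM mRNAs with mutagenized RNase Y cleavage-site windows) were integrated into the B. subtilis chromosome, and cultures grew in LB at 37°C from OD600 0.0003 to 0.3.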

[1] = experiment (reporter, strain, medium): exp 2b: truncated aprE reporter, strain BJT200
[2] = experiment (reporter, strain, medium): exp 4a: truncated aprE reporter, strain BJT201 with 2% xylose (RNase J1 expressed)
[3] = experiment (reporter, strain, medium): exp 6: tetM reporter, strain 168

Sequence | cleaved RNA product abundance [1] | cleaved RNA product abundance [2] | cleaved RNA product abundance [3]
ACAGACGAAGGAGCCGCAAAGTAGTTATTAAGGGATGAATAATCCCTGAATATAAATATCTCTCACTTATTTAAA | 0.409 | 0.524 | 
ACAGACGAAGGAGCCGCAAAGTAGTTATTAAGGGATGAATAATCCCTTAATATAAATATCTCTCACTTATTTAAA | 0.869 |  | 0.729
ACAGACGAAGGAGCCGCAAAGTAGTTATTAAGGGATGAATAATCCTTCAATATAAATATCTCTCACTTATTTAAA |  | 0.543 | 
ACAGACGAAGGAGCCGCAAAGTAGTTATTAAGGGATGAATAATCTCTCAATATAAATATCTCTCACTTATTTAAA |  | 0.802 | 
ACAGACGAAGGAGCCGCAAAGTAGTTATTAAGGGATGAATAATTCCTCAATATAAATATCTCTCACTTATTTAAA |  | 0.75 | 
ACAGACGAAGGAGCCGCAAAGTAGTTATTAAGGGATGAATAGTCCCTCAATATAAATATCTCTCACTTATTTAAA |  | 0.883 | 
ACAGACGAAGGAGCCGCAAAGTAGTTATTAAGGGATGAATATTCCCTCAATATAAATATCTCTCACTTATTTAAA | 0.716 |  | 
ACAGACGAAGGAGCCGCAAAGTAGTTATTAAGGGATGGATAATCCCTCAATATAAATATCTCTCACTTATTTAAA |  | 0.537 | 
ACAGACGAAGGAGCCGCAAAGTAGTTATTAAGGGATTAATAATCCCTCAATATAAATATCTCTCACTTATTTAAA |  | 1.14 | 
ACAGACGAAGGAGCCGCAAAGTAGTTATTAAGGGTTGAATAATCCCTCAATATAAATATCTCTCACTTATTTAAA |  | 0.364 | 
ACAGACGAAGGAGCCGCAAAGTAGTTATTAAGGTATGAATAATCCCTCAATATAAATATCTCTCACTTATTTAAA |  | 0.0907 | 
ACAGACGAAGGAGCCGCAAAGTAGTTATTAAGTGATGAATAATCCCTCAATATAAATATCTCTCACTTATTTAAA | 0.106 | 0.116 | 
ACAGACGAAGGAGCCGCAAAGTAGTTATTAATGGATGAATAATCCCTCAATATAAATATCTCTCACTTATTTAAA | 0.0916 | 0.166 | 
ACAGACGAAGGAGCCGCAAAGTAGTTATTATGGGATGAATAATCCCTCAATATAAATATCTCTCACTTATTTAAA |  | 0.445 | 
ACAGACGAAGGAGCCGCAAAGTAGTTATTTAGGGATGAATAATCCCTCAATATAAATATCTCTCACTTATTTAAA | 0.726 | 0.869 | 
ACAGACGAAGGAGCCGCAAAGTAGTTCTTAAGGGATGAATAATCCCTCAATATAAATATCTCTCACTTATTTAAA |  | 0.195 | 
ACAGACGAAGGAGCCGCAAAGTAGTTTTTAAGGGATGAATAATCCCTCAATATAAATATCTCTCACTTATTTAAA |  | 0.37 | 
ACAGACGAAGGAGCCGCAAAGTATTTATTAAGGGATGAATAATCCCTCAATATAAATATCTCTCACTTATTTAAA | 0.85 | 0.594 | 
ACAGACGAAGGAGCCGCAAAGTCGTTATTAAGGGATGAATAATCCCTCAATATAAATATCTCTCACTTATTTAAA |  | 0.9 | 
ACAGACGAAGGAGCCGCAAATAAATAATTAAGGGATGAATAATCCCTCAATATAAATATCTCTCACTTATTTAAA |  | 0.336 | 
ACAGACGAAGGAGCCGCAAATAAATTATTAAGGAATGAATAATCCCTCAATATAAATATCTCTCACTTATTTAAA |  | 0.195 | 
ACAGACGAAGGAGCCGCAAATAAATTATTAAGGGAAGAATAATCCCTCAATATAAATATCTCTCACTTATTTAAA |  | 0.369 | 
ACAGACGAAGGAGCCGCAAATAAATTATTAAGGGATGAATAATACCTCAATATAAATATCTCTCACTTATTTAAA |  | 0.0858 | 
ACAGACGAAGGAGCCGCAAATAAATTATTAAGGGATGAATAATCCCCCAATATAAATATCTCTCACTTATTTAAA |  | 0.381 | 
ACAGACGAAGGAGCCGCAAATAAATTATTAAGGGATGAATAATCCCTCAACATAAATATCTCTCACTTATTTAAA |  | 0.396 | 
ACAGACGAAGGAGCCGCAAATAAATTATTAAGGGATGAATAATCCCTCAATATAAATATCTCTCACTTATTTAAA | 0.807 | 0.801 | 
ACAGACGAAGGAGCCGCAAATAAATTATTAAGGGATGAATATTCCCTCAATATAAATATCTCTCACTTATTTAAA |  | 0.421 | 

Sequence | cleaved RNA product abundance [1] | cleaved RNA product abundance [2] | cleaved RNA product abundance [3]
ACAGACGAAGGAGCCGCAAATAACTTATTAAGGGATGAATAATCCCTCAATATAAATATCTCTCACTTATTTAAA | 0.465 | 0.465 | 0.719
ACAGACGAAGGAGCCGCAAATAAGATATTAAGGGATGAATAATCCCTCAATATAAATATCTCTCACTTATTTAAA |  | 1.08 | 0.738
ACAGACGAAGGAGCCGCAAATAAGCTATTAAGGGATGAATAATCCCTCAATATAAATATCTCTCACTTATTTAAA |  | 0.149 | 
ACAGACGAAGGAGCCGCAAATAAGTAATTAAGGGATGAATAATCCCTCAATATAAATATCTCTCACTTATTTAAA | 0.246 | 0.339 | 
ACAGACGAAGGAGCCGCAAATAAGTCATTAAGGGATGAATAATCCCTCAATATAAATATCTCTCACTTATTTAAA |  | 0.28 | 
ACAGACGAAGGAGCCGCAAATAAGTTAATAAGGGATGAATAATCCCCCAATATAAATATCTCTCACTTATTTAAA | 0.208 |  | 
ACAGACGAAGGAGCCGCAAATAAGTTAATAAGGGATGAATAATCCCTCAATATAAATATCTCTCACTTATTTAAA | 0.247 | 0.343 | 
ACAGACGAAGGAGCCGCAAATAAGTTAGTAAGGGATGAATAATCCCTCAATATAAATATCTCTCACTTATTTAAA | 0.305 | 0.549 | 
ACAGACGAAGGAGCCGCAAATAAGTTATAAAAGGATGAATAATCCCTCAATATAAATATCTCTCACTTATTTAAA |  | 0.211 | 
ACAGACGAAGGAGCCGCAAATAAGTTATAAAGGGATGAATAATCCCTCAATATAAATATCTCTCACTTATTTAAA | 0.337 | 0.421 | 
ACAGACGAAGGAGCCGCAAATAAGTTATAAAGGGATGTATAATCCCTCAATATAAATATCTCTCACTTATTTAAA | 0.384 |  | 
ACAGACGAAGGAGCCGCAAATAAGTTATCAAGGGATGAATAATCCCTCAATATAAATATCTCTCACTTATTTAAA |  | 0.278 | 
ACAGACGAAGGAGCCGCAAATAAGTTATGAAGGGATGAATAATCCCTCAATATAAATATCTCTCACTTATTTAAA |  | 0.558 | 
ACAGACGAAGGAGCCGCAAATAAGTTATTAAAGGATGAATAATCCCTCAATATAAATATCTCTCACTTATTTAAA | 0.195 | 0.218 | 0.19
ACAGACGAAGGAGCCGCAAATAAGTTATTAAAGGATGAATAATCCCTCAATATAGATATCTCTCACTTATTTAAA |  | 0.188 | 
ACAGACGAAGGAGCCGCAAATAAGTTATTAACGGATGAATAATCCCTCAATATAAATATCTCTCACTTATTTAAA | 0.113 | 0.157 | 
ACAGACGAAGGAGCCGCAAATAAGTTATTAAGAGATGAATAATCCCTCAATATAAATATCTCTCACTTATTTAAA | 0.12 | 0.13 | 
ACAGACGAAGGAGCCGCAAATAAGTTATTAAGAGATGAATAATCCCTCAATATAAATATTTCTCACTTATTTAAA |  | 0.124 | 
ACAGACGAAGGAGCCGCAAATAAGTTATTAAGCGATGAATAATCCCTCAATATAAATATCTCTCACTTATTTAAA |  | 0.134 | 
ACAGACGAAGGAGCCGCAAATAAGTTATTAAGGAATGAATAATCCCTCAATATAAATATCTCTCACTTATTTAAA | 0.0785 | 0.129 | 
ACAGACGAAGGAGCCGCAAATAAGTTATTAAGGCATGAATAATCCCTCAATATAAATATCTCTCACTTATTTAAA | 0.0924 | 0.0954 | 
ACAGACGAAGGAGCCGCAAATAAGTTATTAAGGCATGACTAATCCCTCAATATAAATATCTCTCACTTATTTAAA |  | 0.144 | 
ACAGACGAAGGAGCCGCAAATAAGTTATTAAGGGAAGAATAATCCCTCAATATAAATATCTCTCACTTATTTAAA | 0.497 | 0.366 | 
ACAGACGAAGGAGCCGCAAATAAGTTATTAAGGGACGAATAATCCCTCAATATAAATATCTCTCACTTATTTAAA | 0.65 | 0.802 | 
ACAGACGAAGGAGCCGCAAATAAGTTATTAAGGGAGGAATAATCCCTCAATATAAATATCTCTCACTTATTTAAA | 0.554 | 0.469 | 
ACAGACGAAGGAGCCGCAAATAAGTTATTAAGGGATAAATAATCCCTCAATATAAATATCTCTCACTTATTTAAA |  | 1.03 | 
